The supplement of paper PMC11316812
± gives the standard deviation of the averaged measurements.

Columns and labels:
MCF7 = assay: percentage of EdU-negative (G0-arrested) nuclei per well, 72 h; higher = more G0 arrest; conditions: reference: sequence is the full UniProt precursor, the tested protein was the secreted form or ectodomain
hTERT-HMEC = assay: as above; conditions: reference: sequence is the full UniProt precursor, the tested protein was the secreted form or ectodomain
[1] = protein concentration 0.0225 µM
[2] = protein concentration 0.012475 µM
[3] = protein concentration 0.12475 µM
[4] = protein concentration 0.0211825 µM
[5] = protein concentration 0.211825 µM
[6] = protein concentration 0.0085 µM
[7] = protein concentration 0.0257143 µM
[8] = protein concentration 0.257143 µM
[9] = protein concentration 0.0155 µM
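Also: secreted proteins added to cultured cells, EdU pulse at the end, nuclei found by Hoechst imaging, EdU status from nuclear versus surrounding ring intensity ratio, PBS as neutral control.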

Sequence	percentage of EdU-negative (MCF7; [1]) [%]	percentage of EdU-negative (MCF7; protein concentration 0.225 µM) [%]	percentage of EdU-negative (hTERT-HMEC; [1]) [%]	percentage of EdU-negative (hTERT-HMEC; protein concentration 0.225 µM) [%]	further results
MARRRRRACIALFLVLLFAFGTLMGLRTLKAPDGLPALGPGLELAPFERRPEGAPAPAARAPAAPAAPPPPPPPPRTADPGGSPGPAPAEAEPAPVQSLRVYSDLHAFYYSWYGSPRREGHYIHWDHVMVPHWDPKISASYPRGRHSPPDDLGSSFYPELGPYSSRDPEVLREHMTQLKEAAIGVLVLSWYPPGMADDNGEPSDDLVPAILDTAHQYSIQVAFHIQPYKGRDDITVHDNIKYIIDTYGSHGAFYRYKNSMGKSLPLFYIYDSYLTSPEAWAHLLTPNGPHSIRNTPYDGVFIALLVEEGHTHDILAAGFDGMYTYFASNGFSFGSSHQNWKAVKNFCDANNLMFIPSVGPGYIDTSIRPWNNHNTRNRVNGKYYETALQAALTVRPEIVSITSFNEWHEGTQIEKAIPKKTPTRLYLDYLPHQPSLYLELTRRWAEHFIKEKEQWLM [Q5VSG8]	25.6 ± 0.44	28.3 ± 2.4	4.99 ± 0.62	9.23 ± 0.73	
MRGANAWAPLCLLLAAATQLSRQQSPERPVFTCGGILTGESGFIGSEGFPGVYPPNSKCTWKITVPEGKVVVLNFRFIDLESDNLCRYDFVDVYNGHANGQRIGRFCGTFRPGALVSSGNKMMVQMISDANTAGNGFMAMFSAAEPNERGDQYCGGLLDRPSGSFKTPNWPDRDYPAGVTCVWHIVAPKNQLIELKFEKFDVERDNYCRYDYVAVFNGGEVNDARRIGKYCGDSPPAPIVSERNELLIQFLSDLSLTADGFIGHYIFRPKKLPTTTEQPVTTTFPVTTGLKPTVALCQQKCRRTGTLEGNYCSSDFVLAGTVITTITRDGSLHATVSIINIYKEGNLAIQQAGKNMSARLTVVCKQCPLLRRGLNYIIMGQVGEDGRGKIMPNSFIMMFKTKNQKLLDALKNKQC [Q9UKZ9]					percentage of EdU-negative (MCF7; [2]): 25.27 ± 0.085%; percentage of EdU-negative (MCF7; [3]): 25.1 ± 1.3%; percentage of EdU-negative (hTERT-HMEC; [2]): 4.6 ± 0.68%; percentage of EdU-negative (hTERT-HMEC; [3]): 7.45 ± 0.19%
MRRASRDYTKYLRGSEEMGGGPGAPHEGPLHAPPPPAPHQPPAASRSMFVALLGLGLGQVVCSVALFFYFRAQMDPNRISEDGTHCIYRILRLHENADFQDTTLESQDTKLIPDSCRRIKQAFQGAVQKELQHIVGSQHIRAEKAMVDGSWLDLAKRSKLEAQPFAHLTINATDIPSGSHKVSLSSWYHDRGWAKISNMTFSNGKLIVNQDGFYYLYANICFRHHETSGDLATEYLQLMVYVTKTSIKIPSSHTLMKGGSTKYWSGNSEFHFYSINVGGFFKLRSGEEISIEVSNPSLLDPDQDATYFGAFKVRDID	28.6 ± 1.4	25.6 ± 1.6	4.57 ± 0.17	5.25 ± 0.66	
MARVLGAPVALGLWSLCWSLAIATPLPPTSAHGNVAEGETKPDPDVTERCSDGWSFDATTLDDNGTMLFFKGEFVWKSHKWDRELISERWKNFPSPVDAAFRQGHNSVFLIKGDKVWVYPPEKKEKGYPKLLQDEFPGIPSPLDAAVECHRGECQAEGVLFFQGDREWFWDLATGTMKERSWPAVGNCSSALRWLGRYYCFQGNQFLRFDPVRGEVPPRYPRDVRDYFMPCPGRGHGHRNGTGHGNSTHHGPEYMRCSPHLVLSALTSDNHGATYAFSGTHYWRLDTSRDGWHSWPIAHQWPQGPSAVDAAFSWEEKLYLVQGTQVYVFLTKGGYTLVSGYPKRLEKEVGTPHGIILDSVDAAFICPGSSRLHIMAGRRLWWLDLKSGAQATWTELPWPHEKVDGALCMEKSLGPNSCSANGPGLYLIHGPNLYCYSDVEKLNAAKALPQPQNVTSLLGCTH					percentage of EdU-negative (MCF7; [4]): 26.5 ± 0.3%; percentage of EdU-negative (MCF7; [5]): 26.7 ± 0.95%; percentage of EdU-negative (hTERT-HMEC; [4]): 5.25 ± 0.85%; percentage of EdU-negative (hTERT-HMEC; [5]): 6.11 ± 0.9%
MWAGLLLRAACVALLLPGAPARGYTGRKPPGHFAAERRRLGPHVCLSGFGSGCCPGWAPSMGGGHCTLPLCSFGCGSGICIAPNVCSCQDGEQGATCPETHGPCGEYGCDLTCNHGGCQEVARVCPVGFSMTETAVGIRCTDIDECVTSSCEGHCVNTEGGFVCECGPGMQLSADRHSCQDTDECLGTPCQQRCKNSIGSYKCSCRTGFHLHGNRHSCVDVNECRRPLERRVCHHSCHNTVGSFLCTCRPGFRLRADRVSCEAFPKAVLAPSAILQPRQHPSKMLLLLPEAGRPALSPGHSPPSGAPGPPAGVRTTRLPSPTPRLPTSSPSAPVWLLSTLLATPVPTASLLGNLRPPSLLQGEVMGTPSSPRGPESPRLAAGPSPCWHLGAMHESRSRWTEPGCSQCWCEDGKVTCEKVRCEAACSHPIPSRDGGCCPSCTGCFHSGVVRAEGDVFSPPNENCTVCVCLAGNVSCISPECPSGPCQTPPQTDCCTCVPVRCYFHGRWYADGAVFSGGGDECTTCVCQNGEVECSFMPCPELACPREEWRLGPGQCCFTCQEPTPSTGCSLDDNGVEFPIGQIWSPGDPCELCICQADGSVSCKRTDCVDSCPHPIRIPGQCCPDCSAGCTYTGRIFYNNETFPSVLDPCLSCICLLGSVACSPVDCPITCTYPFHPDGECCPVCRDCNYEGRKVANGQVFTLDDEPCTRCTCQLGEVSCEKVPCQRACADPALLPGDCCSSCPDSLSPLEEKQGLSPHGNVAFSKAGRSLHGDTEAPVNCSSCPGPPTASPSRPVLHLLQLLLRTNLMKTQTLPTSPAGAHGPHSLALGLTATFPGEPGASPRLSPGPSTPPGAPTLPLASPGAPQPPPVTPERSFSASGAQIVSRWPPLPGTLLTEASALSMMDPSPSKTPITLLGPRVLSPTTSRLSTALAATTHPGPQQPPVGASRGEESTM [Q96DN2]					percentage of EdU-negative (MCF7; [6]): 25.5 ± 1.1%; percentage of EdU-negative (MCF7; protein concentration 0.085 µM): 26.4 ± 1.8%; percentage of EdU-negative (hTERT-HMEC; [6]): 4.9939 ± 0.0014%; percentage of EdU-negative (hTERT-HMEC; protein concentration 0.085 µM): 5.36 ± 0.4%
MVDGVMILPVLIMIALPSPSMEDEKPKVNPKLYMCVCEGLSCGNEDHCEGQQCFSSLSINDGFHVYQKGCFQVYEQGKMTCKTPPSPGQAVECCQGDWCNRNITAQLPTKGKSFPGTQNFHLEVGLIILSVVFAVCLLACLLGVALRKFKRRNQERLNPRDVEYGTIEGLITTNVGDSTLADLLDHSCTSGSGSGLPFLVQRTVARQITLLECVGKGRYGEVWRGSWQGENVAVKIFSSRDEKSWFRETELYNTVMLRHENILGFIASDMTSRHSSTQLWLITHYHEMGSLYDYLQLTTLDTVSCLRIVLSIASGLAHLHIEIFGTQGKPAIAHRDLKSKNILVKKNGQCCIADLGLAVMHSQSTNQLDVGNNPRVGTKRYMAPEVLDETIQVDCFDSYKRVDIWAFGLVLWEVARRMVSNGIVEDYKPPFYDVVPNDPSFEDMRKVVCVDQQRPNIPNRWFSDPTLTSLAKLMKECWYQNPSARLTALRIKKTLTKIDNSLDKLKTDC	26.7 ± 0.75	27.2 ± 0.41	5.41 ± 0.37	5.41 ± 1.3	
MAKDFQDIQQLSSEENDHPFHQGEGPGTRRLNPRRGNPFLKGPPPAQPLAQRLCSMVCFSLLALSFNILLLVVICVTGSQSEGHGGAQLQAELRSLKEAFSNFSSSTLTEVQAISTHGGSVGDKITSLGAKLEKQQQDLKADHDALLFHLKHFPVDLRFVACQMELLHSNGSQRTCCPVNWVEHQGSCYWFSHSGKAWAEAEKYCQLENAHLVVINSWEEQKFIVQHTNPFNTWIGLTDSDGSWKWVDGTDYRHNYKNWAVTQPDNWHGHELGGSEDCVEVQPDGRWNDDFCLQVYRWVCEKRRNATGEVA					percentage of EdU-negative (MCF7; [7]): 27 ± 1.8%; percentage of EdU-negative (MCF7; [8]): 25.3 ± 2.7%; percentage of EdU-negative (hTERT-HMEC; [7]): 4.62 ± 0.061%; percentage of EdU-negative (hTERT-HMEC; [8]): 5.93 ± 0.22%
MTVARPSVPAALPLLGELPRLLLLVLLCLPAVWGDCGLPPDVPNAQPALEGRTSFPEDTVITYKCEESFVKIPGEKDSVICLKGSQWSDIEEFCNRSCEVPTRLNSASLKQPYITQNYFPVGTVVEYECRPGYRREPSLSPKLTCLQNLKWSTAVEFCKKKSCPNPGEIRNGQIDVPGGILFGATISFSCNTGYKLFGSTSSFCLISGSSVQWSDPLPECREIYCPAPPQIDNGIIQGERDHYGYRQSVTYACNKGFTMIGEHSIYCTVNNDEGEWSGPPPECRGKSLTSKVPPTVQKPTTVNVPTTEVSPTSQKTTTKTTTPNAQATRSTPVSRTTKHFHETTPNKGSGTTSGTTRLLSGHTCFTLTGLLGTLVTMGLLT					percentage of EdU-negative (MCF7; [9]): 26.2 ± 1%; percentage of EdU-negative (MCF7; protein concentration 0.155 µM): 26.1 ± 1.8%; percentage of EdU-negative (hTERT-HMEC; [9]): 4.51 ± 0.44%; percentage of EdU-negative (hTERT-HMEC; protein concentration 0.155 µM): 7.07 ± 0.42%
MNGFASLLRRNQFILLVLFLLQIQSLGLDIDSRPTAEVCATHTISPGPKGDDGEKGDPGEEGKHGKVGRMGPKGIKGELGDMGDQGNIGKTGPIGKKGDKGEKGLLGIPGEKGKAGTVCDCGRYRKFVGQLDISIARLKTSMKFVKNVIAGIRETEEKFYYIVQEEKNYRESLTHCRIRGGMLAMPKDEAANTLIADYVAKSGFFRVFIGVNDLEREGQYMFTDNTPLQNYSNWNEGEPSDPYGHEDCVEMLSSGRWNDTECHLTMYFVCEFIKKKK [Q9Y6Z7]	24.36 ± 0.1	29.1 ± 0.55	5.319 ± 0.012	7.17 ± 1.1	
MQIITTALVCLLLAGMWPEDVDSKSMQVPFSRCCFSFAEQEIPLRAILCYRNTSSICSNEGLIFKLKRGKEACALDTVGWVQRHRKMLRHCPSKRK	24.1 ± 3.4	25.4 ± 0.28	4.79 ± 0.52	12 ± 1.1	
MGSGRRALSAVPAVLLVLTLPGLPVWAQNDTEPIVLEGKCLVVCDSNPATDSKGSSSSPLGISVRAANSKVAFSAVRSTNHEPSEMSNKTRIIYFDQILVNVGNFFTLESVFVAPRKGIYSFSFHVIKVYQSQTIQVNLMLNGKPVISAFAGDKDVTREAATNGVLLYLDKEDKVYLKLEKGNLVGGWQYSTFSGFLVFPL [Q9NTU7]	23.4 ± 2	25.2 ± 2.2	5.12 ± 0.27	4.5 ± 0.36	
